From article PMC7572793 (Immunity, 2020)

Key:
Assay in all cases: ELISA
[1] = biological target: T1, peptide 29 (Plasmodium falciparum 3D7)
T1 chain: NANPNANPNANPNAN

[2] = biological target: T2, (NANP)5 (Plasmodium falciparum)
T2 chain: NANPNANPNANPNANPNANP

[3] = biological target: T3, (NANP)9 (Plasmodium falciparum)
T3 chain: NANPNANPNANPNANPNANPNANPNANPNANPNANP

[4] = biological target: T4, (NANP)6 (Plasmodium falciparum)
T4 chain: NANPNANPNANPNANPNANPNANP

[5] = biological target: T5, (NANP)3 (Plasmodium falciparum)
T5 chain: NANPNANPNANP

[6] = biological target: T6, (NANP)8 (Plasmodium falciparum)
T6 chain: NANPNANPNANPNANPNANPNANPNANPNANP

[7] = biological target: T7, (NANP)7 (Plasmodium falciparum)
T7 chain: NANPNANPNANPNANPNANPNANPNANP

Measured: binding result

B1: MGU12 (antibody, V domains shown)
VH: QVQLVESGGGVVQPGRSLRLSCAASGFSFSSYGMHWVRQAPGKGPEWVAVIWHDGSYSYYADSVRGRFTISRDNSKNTLYLQMNSLRPEDTGMYHCVKVEDYVRGSSHGGAFHIWGQGTMVTVSS
VL: DIQMTQSPSTLSASVGDRVTITCRASQTINNWLAWYQWKPGKAPELLIYKASSLESGVPSRFSGSGSGTEFTLTISSLQPDDFATYYCQQYSSYWTFGQGTKVDIK
binds: [1] | [2] | [3] | [4] | [5] | [6] | [7]

B2: 1210 (antibody, V domains shown)
VH: QVQLVESGGGVVQPGRSLRLSCAASGFTFSNYGMHWVRQAPGKGLEWVAVIWYDGSKKYYADSVKGRFTISRDNSKNTLYLQMNSLRAEDTAVYYCARVRDSSDYYGDAFDIWGQGTMVTVSS
VL: DIQMTQSPSTLSASVGDRVTITCRASQSISSWLAWYQQKPGKAPKLLIYKASNLESGVPLRFSGSGSGTEFTLTISSLQPDDFATYYCQQYNNYWTFGQGTKVEIK
binds: [1] | [3] | [4] | [6] | [7]

B3: 317 (antibody, V domains shown)
VH: QMQLVESGGGVVQPGRSLRLSCTASGFTFSTYAMHWVRQSPGQGLQWVAVISYHSTNKYYEDSVRGRFTISRDNSKNTLYLQMNSLRAEDTAVYYCARDGYSSSFFDFWGQGTLVTVSS
VL: DIQMTQSPSTLSASVGDRVAITCRASQSISRWLAWYQQQPGKAPKLLMSGASVLESGVPSRFSGSGSGTEFTLTISSLQPDDFATYYCQHYNSYFVTFGQGTKVEIK
binds: [1] | [2] | [3] | [5] | [6] | [7]

B4: 311 (antibody, V domains shown)
VH: QVQLVESGGGVVPPGRSLRLSCATSGFTFSNYGMHWVRQAPGKGLEWVAIIWYDGSRNFYAASVEGRFTISRDNSKNTLYLQMNSLRVEDTAVYYCARAAYYDTSGYGDYWGQGTLVTVSS
VL: QSVLTQPPSVSGAPGQTVTISCTGGSSNIGAGYDVHWYQQLPGTAPKLLIYGNINRPSGVPDRFSGSKSGTSASLAITGLQAEDEADYYCQSYDRRLSGSWVFGGGTKLTVL
binds: [1] | [2] | [3] | [4] | [5] | [6] | [7]

B5: CIS43 (antibody, V domains shown)
VH: QVQLVQSGAEVKKPGASVKVSCKASGYTFTSYAIHWVRQAPGQRLEWMGWIKAGNGNTRYSQKFQDRVTITRDTSTTTAYMELSSLRSEDTAVYYCALLTVLTPDDAFDIWGQGTMVTVSS
VL: not shown
binds: [3]
